Marks after values point to notes of the source that are not given here. CA = not defined here

Test [1] deals with T1, Aβ1-40 (Homo sapiens, UniProt P05067).
T1 construct: (β-AP1-40) was obtained commercially from Bachem (Torrance, Calif.); purchased Bachem (Torrance, Calif.)
In words: Seeded extension assay (thioflavin T fluorescence). The class given is biochemical. To be noted: Table V; 25 mole % inhibitor. On the procedure: The seeded extension assay can be employed to measure the rate of Aβ fiber formed in a solution of Aβ monomer following addition of polymeric Aβ fiber “seed”. The ability of test compounds to prevent further deposition of monomeric Aβ to previously deposited amyloid is determined using a direct indicator of β-sheet formation using fluorescence. In contrast with the nucleation assay, the addition of seed provides immediate nucleation and continued growth of preformed fibrils without the need for continuous mixing, and thus results in the absence of a lag time before polymerization starts. Since this assay uses static polymerization conditions, the activity of positive compounds in the nucleation assay can be confirmed in this second assay under different conditions and with an additional probe of amyloid structure.
In the seeded extension assay, monomeric Aβ140 is incubated in the presence of a “seed” nucleus (approximately ten mole percent of Aβ that has been previously allowed to polymerize under controlled static conditions). Samples of the solution are then diluted in thioflavin T (Th-T). The polymer-specific association of Th-T with Aβ produces a fluorescent complex that allows the measurement of the extent of fibril formation (Levine, H. (1993) Protein Science 2:404-410). In particular, association of Th-T with aggregated β-AP, but not monomeric or loosely associated β-AP, gives rise to a new excitation (ex) maximum at 450 nm and an enhanced emission (em) at 482 nm, compared to the 385 nm (ex) and 445 nm (em) for the free dye. Small aliquots of the polymerization mixture contain sufficient fibril to be mixed with Th-T to allow the monitoring of the reaction mixture by repeated sampling. A linear growth curve is observed in the presence of excess monomer. The formation of thioflavin T responsive β-sheet fibrils parallels the increase in turbidity observed using the nucleation assay.
To prepare the stock seed, 1 ml of the Aβ monomer preparation, is incubated for approximately 8 days at 37° C. and sheared sequentially through an 18, 23, 26 and 30 gauge needle 25, 25, 50, and 100 times respectively. 2 μl samples of the sheared material is taken for fluorescence measurements after every 50 passes through the 30 gauge needle until the fluorescence units (FU) plateau (approx. 100-150×). Test compounds are prepared by dissolving an appropriate amount of test compound in 1×PBS to a final concentration of 1 mM (10× stock). If insoluble, the compound is dissolved in 1/10 volume of DMSO and diluted in 1×PBS to 1 mM. A further 1/10 dilution is also prepared to test each candidate at both 100 μM and 10 μM.
To perform the seeded extension assay, each sample is set up with 50 μl of 200 μM monomer, 125 FU sheared seed (a variable quantity dependent on the batch of seed, routinely 3-6 μl) and 10 μl of 10× modulator solution. The sample volume is then adjusted to a final volume of 100 μl with 1×PBS. Two concentrations of each modulator typically are tested: 100 μM and 10 μM, equivalent to a 1:1 and a 1:10 molar ratio of monomer to modulator. The controls include an unseeded reaction to confirm that the fresh monomer contains no seed, and a seeded reaction in the absence of any modulators, as a reference to compare against candidate modulators. The assay is incubated at 37° C. for 6 h, taking 2 μl samples hourly for fluorescence measurements. To measure fluorescence, a 2 μl sample of Aβ is added to 400 μl of Thioflavin-T solution (50 mM Potassium Phosphate […] pH 7.5). The samples are vortexed and the fluorescence is read in a 0.5 ml micro quartz cuvette at EX 450 nm and EM 482 nm (Hitachi 4500 Fluorimeter).

Test [2] has as its target T1, Aβ1-40. In words: Nucleation assay (turbidity, A405 nm).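 Note: synthetic Aβ monomer polymerization followed by turbidity in 96-well plates with continuous shaking, read every 15 minutes over 5 hours, compared against wells lacking test compound.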 The class given is biochemical. To be noted: Table V.
Description: The nucleation assay is employed to determine the ability of test compounds to alter (e.g. inhibit) the early events in formation of β-AP fibers from monomeric β-AP. […] The time delay before polymerization of β-AP monomer can be quantified as well as the extent of formation of insoluble fiber by light scattering (turbidity). Polymerization reaches equilibrium when the maximum turbidity reaches a plateau. The turbidity of a solution of natural β-AP in the absence or presence of various concentrations of a β-amyloid modulator compound is determined by measuring the apparent absorbance of the solution at 405 nm (A405 nm) over time. The threshold of sensitivity for the measurement of turbidity is in the range of 15-20 μM β-AP. […] This assay can be performed using stirring or shaking to accelerate polymerization, thereby increasing the speed of the assay. Moreover the assay can be adapted to a 96-well plate format to screen multiple compounds.
HFIP-solubilized peptide is sonicated in a waterbath sonicator for 5 mM at highest setting, then evaporated to dryness under a stream of argon. The peptide film is resuspended in anhydrous dimethylsulfoxide (DMSO) at a concentration of 6.9 mg/ml (25× concentration), sonicated for 5 mM as before, then filtered through a 0.2 micron nylon syringe filter (VWR cat. No. 28196-050). Test compounds are dissolved in DMSO at a 100× concentration. […] Ten microliters of the mixture is then added to the bottom of a well of a Corning Costar ultra low binding 96-well plate (Corning Costar, Cambridge Mass.; cat. No. 2500). Ninety microliters of water is added to the well, the plate is shaken on a rotary shaken at a constant speed at room temperature for 30 seconds, an additional 100 μl of 2×PTL buffer (20 mM NaH2PO4, 300 mM NaCl, pH 7.4) is added to the well, the plate is reshaken for 30 seconds and a baseline (t=0) turbidity reading is taken by measuring the apparent absorbance at 405 nm using a Bio-Rad Model 450 Microplate Reader. The plate is then returned to the shaker and shaken continuously for 5 hours. Turbidity readings are taken at 15 minute intervals.
β-amyloid aggregation in the absence of any modulators results in enhanced turbidity of the natural β-AP solution (i.e., an increase in the apparent absorbance at 405 nm over time).
Accordingly a fold increase in lag time of 1.0 indicates no change in lag time, whereas numbers >1.0 indicate an increase in lag time. The “% inhibition of plateau”, which is a measure of the ability of the compound to decrease the total amount of aggregation, refers to the reduction of the final turbidity in the presence of the test compound expressed as a percent of the control without the test compound.
For test [3], the system named is cultured neuronal cells. In words: Neurotoxicity of Aβ1-40 preparations with or without modulator (MTT), cell line not specified. The format is cell-based. To be noted: compared with delay of polymerization in nucleation assay.
Protocol: The neurotoxicity of natural β-amyloid peptide aggregates, in either the presence or absence of a β-amyloid modulator, is tested in a cell-based assay using either a rat or human neuronally-derived cell line (PC-12 cells or NT-2 cells, respectively) and the viability indicator 3,(4,4-dimethylthiazol-2-yl)2,5-diphenyl-tetrazolium bromide (MTT). […] MTT (commercially available from Sigma Chemical Co.) is a chromogenic substrate that is converted from yellow to blue in viable cells, which can be detected spectrophotometrically.
To test the neurotoxicity of natural β-amyloid peptides, stock solutions of fresh Aβ monomers and aged Aβ aggregates were first prepared. […] Peptide prepared in this way and tested immediately on cells is referred to as “fresh” Aβ monomer. To prepare “aged” Aβ aggregates, peptide solution was placed in a 1.5 ml Eppendorf tube and incubated at 37° C. for eight days to allow fibrils to form. Such “aged” Aβ peptide can be tested directly on cells or frozen at −80° C. The neurotoxicity of fresh monomers and aged aggregates were tested using PC12 and NT2 cells. PC 12 cells were routinely cultured in Dulbeco's modified Eagle's medium (DMEM) containing 10% horse serum, 5% fetal calf serum, 4 mM glutamine, and 1% gentamycin. NT2 cells were routinely cultured in OPTI-MEM medium (GIBCO BRL CAT. #31985) supplemented with 10% fetal calf serum, 2 mM glutamine and 1% gentamycin. Cells were plated at 10-15,000 cells per well in 90 μl of fresh medium in a 96-well tissue culture plate 3-4 hours prior to treatment. The fresh or aged Aβ peptide solutions (10 μL) were then diluted 1:10 directly into tissue culture medium so that the final concentration was in the range of 1-10 μM peptide. Cells are incubated in the presence of peptide without a change in media for 48 hours at 37° C. For the final three hours of exposure of the cells to the β-AP preparation, MTT was added to the media to a final concentration of 1 mg/ml and incubation was continued at 37° C. Following the two hour incubation with MTT, the media was removed and the cells were lysed in 100 μL isopropanol/0.4N HCl with agitation. An equal volume of PBS was added to each well and the plates were agitated for an additional 10 minutes. Absorbance of each well at 570 nm was measured using a microtiter plate reader to quantitate viable cells.
The mark [4] stands for this setting: 100 mole % inhibitor relative to Aβ1-40.

T1 sequence (P05067 672-711): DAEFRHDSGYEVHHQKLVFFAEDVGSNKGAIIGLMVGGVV

As to `CC(C)C[C@H](NC(=O)[C@@H](N)CCCCN)C(=O)N[C@H](C(=O)N[C@@H](Cc1ccccc1)C(=O)N[C@@H](Cc1ccccc1)C(N)=O)C(C)C` [PPI-387], the “% Iext'n (percent reduction of thioflavin-T fluorescence)” value in test [1] is 39%. Moreover, the “% Inucl'n (percent reduction in maximum observed turbidity)” value in test [2] (100 mole % inhibitor) is −9%. In test [2] (setting [4]), the “ΔLag (ratio of lag time with test compound to lag time of control)” value worked out at 1.3.

Turning to `CC(C)C[C@H](N)C(=O)N[C@H](C(=O)N[C@@H](Cc1ccccc1)C(=O)N[C@@H](Cc1ccccc1)C(=O)N[C@@H](C)C(N)=O)C(C)C` [PPI-405], the “% Iext'n (percent reduction of thioflavin-T fluorescence)” value in test [1] is reported as 70%. The “% Inucl'n (percent reduction in maximum observed turbidity)” value in test [2] (100 mole % inhibitor) stood at 11%. Moreover, in test [2] (setting [4]), the “ΔLag (ratio of lag time with test compound to lag time of control)” value came to 1.3.

For the molecule PPI-380: CA-LVFF-oh, the “% Iext'n (percent reduction of thioflavin-T fluorescence)” value in test [1] was 51%. Further, the “% Inucl'n (percent reduction in maximum observed turbidity)” value in test [2] (33 mol % inhibitor) is 72** %. The “ΔLag (ratio of lag time with test compound to lag time of control)” value in test [2] (33 mole % inhibitor) is listed as 1.8.

Turning to “PPI-392: CA-VFFA-oh ({CA}-VFFA-OH; reading uncertain; also: printed as CA-VFFA-oh)”, the “% Iext'n (percent reduction of thioflavin-T fluorescence)” value in test [1] is 10%. Moreover, the “% Inucl'n (percent reduction in maximum observed turbidity)” value in test [2] (100 mole % inhibitor) was determined as 76%. Also, in test [2] (setting [4]), the “ΔLag (ratio of lag time with test compound to lag time of control)” value was determined as 2.0.

In the case of PPI-393: CA-LVF-oh, in test [1], the “% Iext'n (percent reduction of thioflavin-T fluorescence)” value is reported as 0%. Further, the “% Inucl'n (percent reduction in maximum observed turbidity)” value in test [2] (100 mole % inhibitor) worked out at 1%. The “ΔLag (ratio of lag time with test compound to lag time of control)” value in test [2] (setting [4]) is reported as 1.3.

With “PPI-394: CA-VFF-oh ({CA}-Val-Phe-Phe-OH; reading uncertain; also: printed as CA-VFF-oh)”, the “% Iext'n (percent reduction of thioflavin-T fluorescence)” value in test [1] came to 0%. Besides, the “% Inucl'n (percent reduction in maximum observed turbidity)” value in test [2] (100 mole % inhibitor) was found to be 55%. Besides, in test [2] (setting [4]), the “ΔLag (ratio of lag time with test compound to lag time of control)” value is listed as 1.8.

On to “PPI-395: CA-FFA-oh ({CA}-Phe-Phe-Ala-OH; reading uncertain; also: printed as CA-FFA-oh)”, for which the “% Iext'n (percent reduction of thioflavin-T fluorescence)” value in test [1] is given as 6%. For the same molecule, the “% Inucl'n (percent reduction in maximum observed turbidity)” value in test [2] (100 mole % inhibitor) is recorded as 51%. Moreover, the “ΔLag (ratio of lag time with test compound to lag time of control)” value in test [2] (setting [4]) came to 1.0.

Consider “PPI-426: CA-FFVLA-oh, rearranged Aβ17-21”, for which the “delay of the appearance of neurotoxicity relative to control” value in test [3] is recorded as “coincided with the delay in the time at which polymerization of Aβ began”.

As to “PPI-429: CA-FFV-oh ({CA}-Phe-Phe-Val-OH; reading uncertain; also: printed as PPI-429: CA-FFV-oh)”, the “% Iext'n (percent reduction of thioflavin-T fluorescence)” value in test [1] worked out at 7%. The “% Inucl'n (percent reduction in maximum observed turbidity)” value in test [2] (100 mole % inhibitor) was −33%. Moreover, in test [2] (setting [4]), the “ΔLag (ratio of lag time with test compound to lag time of control)” value worked out at 2.2.

For “PPI-430: CA-FFVL-oh ({CA}-FFVL-OH; reading uncertain; also: printed as PPI-430: CA-FFVL-oh)”, the “% Iext'n (percent reduction of thioflavin-T fluorescence)” value in test [1] is listed as 75%. The “% Inucl'n (percent reduction in maximum observed turbidity)” value in test [2] (100 mole % inhibitor) is given as 33%. In addition, the “ΔLag (ratio of lag time with test compound to lag time of control)” value in test [2] (setting [4]) is recorded as 4.1.
